The text below walks through data of article PMC1331985 (Nucleic Acids Research, 2006).

This series deals with the molecule itself. The series can be described thus: SEC. A general note: In gel filtration, larger molecules generally elute earlier.

Numbering of substitutions follows the chain as printed. Names and notes keep the numbering of the source.

B1: Est3p-K71A (natural protein, S. cerevisiae, UniProt Q03096 1-181, looked up)
chain: MPKVILESHSKPTDSVFLQPWIKALIEDNSEHDQYHPSGHVIPSLTKQDLALPHMSPTILTNPCHFAKITAFYNVCDYKVYASIRDSSHQILVEFSQECVSNFERTHNCRITSETTNCLMIIGDADLVYVTNSRAMSHFKICLSNISSKEIVPVLNVNQATIFDIDQVGSLSTFPFVYKYL
As to B1, the binding result was “binds”.

B2: Est3p-E104A (natural protein, S. cerevisiae, UniProt Q03096 1-181, looked up)
chain: B1 chain with A71K, E104A
On to B2, for which the binding result is listed as “binds”.

B3: Est3p-K3A (natural protein, S. cerevisiae, UniProt Q03096 1-181, looked up)
chain: B1 chain with K3A, A71K
As for B3, the binding result was “binds”.

B4: Est3p-T115A (natural protein, S. cerevisiae, UniProt Q03096 1-181, looked up)
chain: B1 chain with A71K, T115A
As for B4, the binding result is on record as “binds”.

B5: Est3p-F72A (natural protein, S. cerevisiae, UniProt Q03096 1-181, looked up)
chain: B1 chain with A71K, F72A
For the protein B5, the binding result was “binds”.

B6: Est3p-S87A (natural protein, S. cerevisiae, UniProt Q03096 1-181, looked up)
chain: B1 chain with A71K, S87A
Take B6: the binding result is listed as “binds”.
